Earlier results on 27 substances are cited in patent US20050119762A1, “Hydrogel providing cell-specific ingrowth” (priority 2003, published 2005).

The target in data set [1] is T1, MMP-2 (Homo sapiens, UniProt P08253).
T1 sequence (P08253 110-660): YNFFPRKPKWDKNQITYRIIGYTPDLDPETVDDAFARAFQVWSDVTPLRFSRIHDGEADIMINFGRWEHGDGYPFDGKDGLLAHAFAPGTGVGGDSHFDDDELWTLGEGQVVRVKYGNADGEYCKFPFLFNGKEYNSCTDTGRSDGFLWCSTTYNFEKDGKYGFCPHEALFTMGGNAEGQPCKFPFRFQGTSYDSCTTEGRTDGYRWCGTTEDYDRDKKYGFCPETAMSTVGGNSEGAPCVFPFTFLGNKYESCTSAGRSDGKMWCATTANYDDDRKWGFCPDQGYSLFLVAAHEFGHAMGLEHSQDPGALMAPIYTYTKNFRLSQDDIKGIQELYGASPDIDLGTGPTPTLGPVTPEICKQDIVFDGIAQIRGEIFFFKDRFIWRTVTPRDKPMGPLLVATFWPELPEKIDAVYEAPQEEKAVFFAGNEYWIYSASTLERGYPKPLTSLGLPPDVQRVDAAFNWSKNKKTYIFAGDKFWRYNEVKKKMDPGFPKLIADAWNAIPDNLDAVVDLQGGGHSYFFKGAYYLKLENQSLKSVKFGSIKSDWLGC

The target in data set [2] is T2, MMP-9 (Homo sapiens, UniProt P14780).
T2 construct: a recombinant form of the catalytic domain of MMP-9 expressed in HEK 293 cells; host or cells: HEK 293 cells
To be noted: phage clones selected by MMP-9; for % Hydrolysis 1: experiment 1; for % Hydrolysis 2: experiment 2.

Data set [3] has as its target T2, MMP-9. To be noted: peptides based on phage clones.
The target in data set [4] is T1, MMP-2. To be noted: synthesized peptides, reciprocal plots.
The target in data set [5] is T1, MMP-2. Particulars: phage substrate clones hydrolysed by activated MMP-2; for % Hydrolysis exp 1: experiment 1; for % Hydrolysis exp 2: experiment 2.

T2 sequence (P14780 107-444 limits assumed): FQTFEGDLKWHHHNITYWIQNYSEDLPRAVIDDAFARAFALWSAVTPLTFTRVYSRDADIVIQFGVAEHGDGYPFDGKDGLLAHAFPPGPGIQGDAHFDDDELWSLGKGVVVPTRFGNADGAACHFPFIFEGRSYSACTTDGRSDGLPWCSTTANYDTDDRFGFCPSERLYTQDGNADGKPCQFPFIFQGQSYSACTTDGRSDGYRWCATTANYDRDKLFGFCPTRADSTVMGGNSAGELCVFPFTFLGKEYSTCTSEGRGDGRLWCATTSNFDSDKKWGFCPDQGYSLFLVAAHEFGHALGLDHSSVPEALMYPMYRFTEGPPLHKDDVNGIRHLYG

As for GCRDSGESLAYYTADRCG, in data set [1], the “hydrolysis by MMP-2” value is listed as “sensitive to hydrolysis”.
For the substance “SG ↓ LKALMITA (SGLKALMITA; peptide substrate based on phage clones) [Peptide A7]”, in data set [2], the “% Hydrolysis 1” value was 79.8% and the “% Hydrolysis 2” value is 76%. The MMP-9 kcat in data set [3] is on record as 30 S^−1.
For the substance “SGAKPRA ↓ LTA (SGAKPRALTA; peptide substrate based on phage clones) [Peptide A3]”, the MMP-2 kcat in data set [4] was 400 s⁻¹.
On to “SGANISD ↓ LTA (SGANISDLTA; peptide substrate based on phage clones) [Peptide B37]”, for which the MMP-2 kcat in data set [4] is 353 s⁻¹. Besides, in data set [5], the “% Hydrolysis exp 1” value is on record as 97% and the “% Hydrolysis exp 2” value is recorded as 95%.
Consider “SGAPSW ↓ LLTA (SGAPSWLLTA; peptide substrate based on phage clones) [Peptide A13P]”, for which the MMP-2 kcat in data set [4] is 204 s⁻¹.
As to “SGAVRW ↓ LLTA (SGAVRWLLTA; peptide substrate based on phage clones) [Peptide A13R]”, the MMP-2 kcat in data set [4] is 28 s⁻¹.
As to “SGAVSW ↓ LLTA (SGAVSWLLTA; peptide sequence based on phage clones) [Peptide A13]”, in data set [2], the “% Hydrolysis 1” value is 78.9% and the “% Hydrolysis 2” value was 72%. The MMP-2 kcat in data set [4] is 105 s⁻¹. Further, in data set [5], the “% Hydrolysis exp 1” value is given as 100% and the “% Hydrolysis exp 2” value is 93%.
Take “SGESLAY ↓ YTA (SGESLAYYTA; peptide substrate based on phage clones) [Peptide B74]”: in data set [4], the MMP-2 kcat is 622 s⁻¹. In data set [5], the “% Hydrolysis exp 1” value is reported as 81% and the “% Hydrolysis exp 2” value is given as 90%.
On to “SGESLRY ↓ YTA (SGESLRYYTA; peptide substrate based on phage clones) [Peptide B74R]”, for which the MMP-2 kcat in data set [4] is 61 s⁻¹.
As to “SGESPAY ↓ YTA (SGESPAYYTA; peptide substrate based on phage clones) [Peptide B74P]”, the MMP-2 kcat in data set [4] is 264 s⁻¹.
Regarding “SGFGSRY ↓ LTA (SGFGSRYLTA; peptide substrate based on phage clones) [Peptide A19]”, in data set [2], the “% Hydrolysis 1” value is recorded as 45% and the “% Hydrolysis 2” value is given as 50%. Further, the MMP-9 kcat in data set [3] is listed as 11 S^−1.
On to “SGHMHAA ↓ LTA (SGHMHAALTA; peptide substrate based on phage clones) [Peptide A21A]”, for which the MMP-2 kcat in data set [4] was 601 s⁻¹.
Turning to “SGHMHKA ↓ LTA (SGHMHKALTA; peptide substrate based on phage clones) [Peptide A21]”, the MMP-2 kcat in data set [4] was 124 s⁻¹. In data set [5], the “% Hydrolysis exp 1” value is on record as 30% and the “% Hydrolysis exp 2” value is 49%.
As to “SGKGPRQ ↓ ITA (SGKGPRQITA; peptide substrate based on phage clones) [Peptide C15]”, in data set [2], the “% Hydrolysis 1” value was 100% and the “% Hydrolysis 2” value was 98%. Besides, in data set [3], the MMP-9 kcat was 703 S^−1.
As for “SGKIPRR ↓ LTA (SGKIPRRLTA; peptide substrate based on phage clones) [Peptide A11m1]”, in data set [3], the MMP-9 kcat is 224 S^−1.
In the case of “SGKIPRT ↓ ATA (SGKIPRTATA; peptide substrate based on phage clones) [Peptide A11m2]”, the MMP-9 kcat in data set [3] is recorded as 9.4 S^−1.
“SGKIPRT ↓ LTA (SGKIPRTLTA; peptide substrate based on phage clones) [Peptide A11]”: in data set [2], the “% Hydrolysis 1” value is 100% and the “% Hydrolysis 2” value is reported as 100%. For the same substance, in data set [3], the MMP-9 kcat was 86.4 S^−1.
With “SGLRLAA ↓ ITA (SGLRLAAITA; peptide substrates based on phage clones) [Peptide B49]”, the MMP-2 kcat in data set [4] was 510 s⁻¹. Moreover, in data set [5], the “% Hydrolysis exp 1” value is recorded as 100% and the “% Hydrolysis exp 2” value is reported as 100%.
Regarding “SGLRPAK ↓ STA (SGLRPAKSTA; peptide substrate based on phage clones) [Peptide A18]”, in data set [2], the “% Hydrolysis 1” value was 28.9% and the “% Hydrolysis 2” value was 30%. For the same substance, the MMP-9 kcat in data set [3] is 78 S^−1.
Take “SGNRYSS ↓ LTA (SGNRYSSLTA; peptide substrate based on phage clones) [Peptide A34]”: in data set [4], the MMP-2 kcat was 202 s⁻¹. Moreover, in data set [5], the “% Hydrolysis exp 1” value is reported as 100% and the “% Hydrolysis exp 2” value is given as 100%.
With “SGPLF ↓ YSVTA (SGPLFYSVTA; peptide substrate based on phage clones) [Peptide A10]”, in data set [2], the “% Hydrolysis 1” value was 100% and the “% Hydrolysis 2” value was 100%. Also, the MMP-9 kcat in data set [3] is listed as 20 S^−1. In addition, in data set [5], the “% Hydrolysis exp 1” value was 36% and the “% Hydrolysis exp 2” value is 40%.
As for “SGPRA ↓ VSTTA (SGPRAVSTTA; peptide substrate based on phage clones) [Peptide A6]”, in data set [2], the “% Hydrolysis 1” value is reported as 100% and the “% Hydrolysis 2” value was 99%. The MMP-9 kcat in data set [3] is 178 S^−1. In data set [5], the “% Hydrolysis exp 1” value is reported as 30% and the “% Hydrolysis exp 2” value was 44%.
As to “SGQPHY ↓ LTTA (SGQPHYLTTA; peptide substrate based on phage clones) [Peptide B1]”, in data set [2], the “% Hydrolysis 1” value is on record as 79.6% and the “% Hydrolysis 2” value was 85%. The MMP-9 kcat in data set [3] is recorded as 9 S^−1.
On to “SGRR ↓ LIHHTA (SGRRLIHHTA; peptide substrates based on phage clones) [Peptide C11]”, for which, in data set [2], the “% Hydrolysis 1” value is 94.9% and the “% Hydrolysis 2” value is 74%.
As for “SGRR ↓ LLSRTA (SGRRLLSRTA; peptide substrates based on phage clones) [Peptide A16]”, in data set [2], the “% Hydrolysis 1” value is on record as 20.2% and the “% Hydrolysis 2” value was 11%.
Take “SGRSLRR ↓ LTA (SGRSLRRLTA; peptide substrate based on phage clones) [Peptide C9R]”: the MMP-2 kcat in data set [4] is 302 s⁻¹.
Turning to “SGRSLSR ↓ LTA (SGRSLSRLTA; peptide substrate based on phage clones) [Peptide C9]”, the MMP-2 kcat in data set [4] is 740 s⁻¹. Further, in data set [5], the “% Hydrolysis exp 1” value is listed as 100% and the “% Hydrolysis exp 2” value is listed as 100%.
